Among the data in publication PMC9456187, “The Ambivalence of Connexin43 Gap Peptides in Cardioprotection of the Isolated Heart against Ischemic Injury” (International Journal of Molecular Sciences, 2022) are Kd and koff values, retold here.

In test [1] the target is RadA-EL1 (extracellular loop 1 of connexin43 grafted into the monomeric ATPase domain of Pyrococcus furiosus … (Pyrococcus furiosus | , Only the grafted connexin43 EL1 loop (the binding part) is given. It was displayed on the His-tagged monomeric RadA ATPase domain of Pyrococcus furiosus, treated here as a carrier. The scaffold limits)). In words: SPR; Biacore T200; his-tagged RadA-EL1 captured on NTA surface (about 200 RU) as ligand, Gap27 injected as analyte at 30 µL/min; 25 °C; 50 mM HEPES pH 7.5, 500 mM NaCl, 0.005% Tween-20; reference channel without nickel; 1:1 binding model. To be noted: both partners purified.
Chain of RadA-EL1 (extracellular loop 1 of connexin43 grafted into the monomeric ATPase domain of Pyrococcus furiosus … (Pyrococcus furiosus | , Only the grafted connexin43 EL1 loop (the binding part) is given. It was displayed on the His-tagged monomeric RadA ATPase domain of Pyrococcus furiosus, treated here as a carrier. The scaffold limits)) (chain, as listed by the source): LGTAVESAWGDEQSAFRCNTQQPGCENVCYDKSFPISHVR

Test [2] concerns the target RadA-EL2 (extracellular loop 2 of connexin43 grafted into the monomeric ATPase domain of Pyrococcus furiosus … (Pyrococcus furiosus | , Only the grafted connexin43 EL2 loop (the binding part) is given. It was displayed on the His-tagged monomeric RadA ATPase domain of Pyrococcus furiosus, treated here as a carrier. The scaffold limits)). In words: SPR; Biacore T200; his-tagged RadA-EL2 captured on NTA surface (about 200 RU) as ligand, Gap26 injected as analyte at 30 µL/min; 30 °C; 50 mM HEPES pH 7.5, 500 mM NaCl, 0.005% Tween-20, 0.1 mM TCEP; reference channel without nickel; 1:1 binding model. To be noted: both partners purified.

Chain of RadA-EL2 (extracellular loop 2 of connexin43 grafted into the monomeric ATPase domain of Pyrococcus furiosus … (Pyrococcus furiosus | , Only the grafted connexin43 EL2 loop (the binding part) is given. It was displayed on the His-tagged monomeric RadA ATPase domain of Pyrococcus furiosus, treated here as a carrier. The scaffold limits)) (chain, as listed by the source): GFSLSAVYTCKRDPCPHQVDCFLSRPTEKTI

B1: Gap27 (peptide)
peptide: SRPTEKTIFII
notes: connexin43 mimetic peptide, 11 amino acids, analogue of the second extracellular loop (EL2) of connexin43; The peptide was tested on the RadA-EL1 construct; also called G27; connexin mimetic peptide Gap27; source: bought: Pepnome Inc., Hong Kong (peptide)
Turning to B1, in test [1], the Kd came out at 6 µM and the koff is 0.061 s⁻¹.

B2: Gap26 (peptide)
peptide: VCYDKSFPISHVR
notes: connexin43 mimetic peptide, 13 amino acids, analogue of the first extracellular loop (EL1) of connexin43; The peptide was tested on the RadA-EL2 construct; also called G26; connexin mimetic peptide Gap26; source: bought: Pepnome Inc., Hong Kong (peptide)
B2: in test [2], the Kd was determined as 8 µM and the koff is 0.0043 s⁻¹.
